Substrate: O=c1ccn([C@@H]2O[C@H](COP(=O)(O)O)[C@@H](O)[C@H]2O)c(=O)[nH]1
Assay: purified protein
Assay type: biochemical, Thermus thermophilus
Conditions: without GTP, 1 mM ATP, 5 mM MgCl2, 100 mM KCl, 50 mM Tris-HCl pH 7.5, 25°C

B1: ttUMPK (UMP kinase of Thermus thermophilus HB8) (Thermus thermophilus HB8) (protein)
chain: MKYKRVLLKLSGEFLTRNGFGIEPEATQALAREIKAAYDTGVQLAIVIGAGNLWRGARQGVGMDRATADYIGMLATIMNALALQDALESLGVPTRVQTALTITQVAEPYIRRRALRHLEKERIVIFGGGTGNPFFSTDTAAALRALEVGAEVVLMAKNKVDGVYSDDPRKNPEAVRFDELTYLEVLNRGLQVMDTTAITLCMEAGLPIVVFDIFKPGALVGIIQGEKVGTLIH
notes: full-length gene in pET-11a (NdeI/BamHI), no tag mentioned; expressed in E. coli BL21(DE3), heat-treated; homohexamer by size exclusion
  Km: 46 µM
  kcat: 13 s⁻¹
